Target: specific IgE from a pool of sera from plantain-allergic patients
Test: inhibition ELISA: nPla I 1 coated on plate, pooled-serum IgE inhibited by rPla I 1.0101, detection with HRP-labeled anti-human IgE

B1: recombinant Pla I 1 allergen, variant 0101 (rPla I 1.0101), expressed in Pichia pastoris (protein)
chain: ETQTSHPAKFHVEGEVYCNVCHSRNLINELSERMAGAQVQLDCKDDSKKVIYSIGGETDQDGVYRLPVVGYHEDCEIKLVKSSRPDCSEIPKLAKGTIQTSKVDLSKNTTITEKTRHVKPLSFRAKTDAPGC
modifications: partly N-glycosylated (glycosylated 22 kDa and non-glycosylated 17 kDa forms; potential N-glycosylation site at position 107)
% inhibition of IgE-binding: 80%
